# From patent publication US20040266694A1 (published 2004)
# B1: phage clone V5.10 (control peptide insert encoded by ONV5.10, SEQ ID NO: 10) (other, bacteriophage M13)
# chain: PEPEVRLSPPGHIQSLAETVESCLAKPHTENSFTNVWKDDKTLDRYANYEGCLWNATGVVVCTGDETQCYGTWVPIGLAIPENEGGGSEGGGSEGGGSEGGGTKPPEYGDTPIPGYTYINPLDGTYPPGTEQNPANPNPSLEESQPLNTFMFQNNRFRNRQGALTVYTGTVTQGTDPVKTYYQYTPVSSKAMYDAYWNGKFRDCAFHSGFNEDPFVCEYQGQSSDLPQPPVNAGGGSGGGSGGGSEGGGSEGGGSEGGGSEGGGSGGGSGSGDFDYEKMANANKGAMTENADENALQSDAKGKLDSVATDYGAAIDGFIGDVSGLANGNGATGDFAGSNSQMAQVGDGDNSPLMNNFRQYLPSLPQSVECRPFVFSAGKPYEFSIDCDKINLFRGVFAFLLYVATFMYVFSTFANILRNKES
# notes: Clone label V5.10 tied to oligonucleotide ONV5.10 by its name only
# B2: human recombinant VEGF (R&D Systems) (ligand, UniProt P15692-4 27-191, looked up)
# chain: APMAEGGGQNHHEVVKFMDVYQRSYCHPIETLVDIFQEYPDEIEYIFKPSCVPLMRCGGCCNDEGLECVPTEESNITMQIMRIKPHQGQHIGEMSFLQHNKCECRPKKDRARQENPCGPCSERRKHLFVQDPQTCKCSCKNTDSRCKARQLELNERTCRCDKPRR
# notes: also called vascular endothelial factor
# B3: Conjugate NO.: 1, peroxidase-peptide conjugate (other, horseradish)
# chain: QLTPTFYDNSCPNVSNIVRDTIVNELRSDPRIAASILRLHFHDCFVNGCDASILLDNTTSFRTEKDAFGNANSARGFPVIDRMKAAVESACPRTVSCADLLTIAAQQSVTLAGGPSWRVPLGRRDSLQAFLDLANANLPAPFFTLPQLKDSFRNVGLNRSSDLVALSGGHTFGKNQCRFIMDRLYNFSNTGLPDPTLNTTYLQTLRGLCPLNGNLSALVDFDLRTPTIFDNKYYVNLEEQKGLIQSDQELFSSPNATDTIPLVRSFANSTQTFFNAFVEAMDRMGNITPLTGTQGQIRLNCRVVNSNS
# peptide: CNGYEIEWYSWVTHGMY
# modifications: C-terminal amide (NH2); Cys 1 disulfide-linked through SPDP to peroxidase; activated with SPDP (N-succinimidyl-3-(2-pyridylthio)propionate), disulfide-linked to the peptide
# notes: also called Conjugate ID NO:1; Conjuguate ID NO 1
# B4: phage clone V40 (control peptide insert encoded by ONV40, SEQ ID NO: 11) (other, bacteriophage M13)
# chain: FVGGWLVPEDERLYPEAETVESCLAKPHTENSFTNVWKDDKTLDRYANYEGCLWNATGVVVCTGDETQCYGTWVPIGLAIPENEGGGSEGGGSEGGGSEGGGTKPPEYGDTPIPGYTYINPLDGTYPPGTEQNPANPNPSLEESQPLNTFMFQNNRFRNRQGALTVYTGTVTQGTDPVKTYYQYTPVSSKAMYDAYWNGKFRDCAFHSGFNEDPFVCEYQGQSSDLPQPPVNAGGGSGGGSGGGSEGGGSEGGGSEGGGSEGGGSGGGSGSGDFDYEKMANANKGAMTENADENALQSDAKGKLDSVATDYGAAIDGFIGDVSGLANGNGATGDFAGSNSQMAQVGDGDNSPLMNNFRQYLPSLPQSVECRPFVFSAGKPYEFSIDCDKINLFRGVFAFLLYVATFMYVFSTFANILRNKES
# notes: Clone label V40 tied to oligonucleotide ONV40 by its name only
# What was measured:
# [1] = target: T1, Recombinant human Flt-1/Fc chimera (R&D Systems) (human, UniProt P17948-2 27-687, limits assumed); experiment: phage ELISA on Flt-1/Fc captured by anti-Fc, anti-M13-HRP
# T1 sequence (P17948 other isoform, or with tags, fused parts or gaps mutant limits assumed): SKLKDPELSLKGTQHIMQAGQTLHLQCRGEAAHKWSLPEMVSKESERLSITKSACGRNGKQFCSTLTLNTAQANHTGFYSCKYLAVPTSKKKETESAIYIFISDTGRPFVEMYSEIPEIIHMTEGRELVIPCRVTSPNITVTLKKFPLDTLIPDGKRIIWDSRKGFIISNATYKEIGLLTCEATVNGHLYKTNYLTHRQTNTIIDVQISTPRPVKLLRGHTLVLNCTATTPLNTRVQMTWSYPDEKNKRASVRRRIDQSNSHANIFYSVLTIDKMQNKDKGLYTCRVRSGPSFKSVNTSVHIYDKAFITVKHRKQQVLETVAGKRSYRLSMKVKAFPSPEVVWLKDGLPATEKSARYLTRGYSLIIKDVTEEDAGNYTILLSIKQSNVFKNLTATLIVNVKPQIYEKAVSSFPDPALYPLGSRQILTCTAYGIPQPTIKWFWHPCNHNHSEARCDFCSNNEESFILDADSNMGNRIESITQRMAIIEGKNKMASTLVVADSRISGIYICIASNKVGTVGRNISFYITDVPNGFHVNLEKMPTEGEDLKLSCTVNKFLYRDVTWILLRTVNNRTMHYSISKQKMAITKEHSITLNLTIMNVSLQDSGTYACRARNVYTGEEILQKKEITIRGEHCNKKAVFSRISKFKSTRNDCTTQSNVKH
# [2] = target: T1, Recombinant human Flt-1/Fc chimera (R&D …); experiment: competitive receptor binding assay on immobilized Flt-1/Fc; VEGF against 30 µM fluorescein labeled peptide (SEQ ID NO: 3)
# Method: The cocktails were allowed to equilibrate for 4 hours at room temperature. After incubation, micrititer plates were washed with buffer B for 10 times. […] The results are represented as average of triplicate measurement ±SD.
# [3] = target: T1, Recombinant human Flt-1/Fc chimera (R&D …); experiment: receptor binding assay on immobilized Flt-1/Fc, bound peroxidase activity
# [4] = target: T1, Recombinant human Flt-1/Fc chimera (R&D …); experiment: receptor binding assay on immobilized Flt-1/Fc; reference: the peptide
binder,measurement,setting,value
B1,"ABSORBANCE, A 405",[1],0.039 A405
B2,IC50,[2],5 nM
B3,EC50,[3],100 nM
same,fold of half-maximum binding concentration against the peptide,[4],50 fold
B4,"ABSORBANCE, A 405",[1],0.025 A405
